Results taken from paper doi:10.1101/2023.05.06.539669 (bioRxiv, 2023).
“And” between values parts separate entries of the source, which are not always exact repeats. Equal entries are not always repeated. Where no end group is shown, it is not given here.

Target: bacterially expressed wild-type HRAS (human, UniProt P01112 1-189)
Experiment: ITC

Sequence of bacterially expressed wild-type HRAS (P01112 whole entry): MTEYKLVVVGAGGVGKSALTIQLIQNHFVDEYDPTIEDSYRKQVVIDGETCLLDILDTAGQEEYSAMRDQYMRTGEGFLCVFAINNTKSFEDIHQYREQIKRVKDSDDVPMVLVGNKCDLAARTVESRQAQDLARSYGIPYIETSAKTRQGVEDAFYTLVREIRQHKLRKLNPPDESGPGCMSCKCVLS

In the case of YRLEKQSEPNV-NH2 [S-016-1034 (CDRI-S-016-1034), 11-mer peptide derived from the RAS-Binding-Domain of mSIN1], the Kd is reported as 9.54 µM and 8.95 µM.
